Measured values taken from patent publication US20190275133A1.

Target: IL-2Rαβ (UniProt P01589)
Assay: in vitro binding affinity against IL-2 as a standard (Example 2: SPR, Biacore T-100, receptor-Fc captured, EC50 of RU against concentration)

UniProt P01589, sequence (P01589 22-240 limits assumed): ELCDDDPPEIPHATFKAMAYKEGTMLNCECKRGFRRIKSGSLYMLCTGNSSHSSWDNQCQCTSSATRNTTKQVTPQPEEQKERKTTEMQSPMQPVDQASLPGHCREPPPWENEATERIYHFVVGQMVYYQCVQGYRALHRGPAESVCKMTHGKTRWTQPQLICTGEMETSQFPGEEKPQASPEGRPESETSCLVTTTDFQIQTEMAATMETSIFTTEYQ

Substance “RSLAIL-2 (multiPEGylated recombinant human IL-2 with the aldesleukin sequence; composition of primarily 4-mers, 5-mers and 6-mers of releasably attached mPEG2-C2-fmoc-20kD) (from UniProt P60568 22-153) (ligand)” has a fold decrease in affinity relative to IL-2 of 60 fold.
